The results in this text go back to US20120039908A1 (TRANSTECH PHARMA, published 2012).

In experiment [1] the target is T1, S100b protein (Cat. No. 559290, Calbiochem).
T1 construct: Coated on the ELISA plate at 20 µg/mL in TBS pH 8.0 with 5 mM CaCl2; also called RAGE ligand S100b
T1 sequence (P04271 2-92, species assumed, looked up): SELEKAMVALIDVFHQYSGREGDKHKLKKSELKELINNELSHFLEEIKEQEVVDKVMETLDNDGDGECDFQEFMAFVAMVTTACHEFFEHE
The experiment in a line: ELISA, S100b coated on plate, sRAGE-Ig titrated, anti-human IgG-HRP. As for the experimental part: (§1) S100b binding ELISA: An ELISA assay plate was coated with 100 μL/well of 20 μg/mL S100b protein (Cat. No. 559290, Calbiochem, Gibbstown, N.J.) in coating buffer (Tris buffered saline [TBS], pH8.0, with 5 mM CaCl₂) overnight at 4° C. The plate was then washed three times with blocking buffer (TBS pH8.0, with 5 mM CaCl₂, 0.05% Tween20, and 1% bovine serum albumin [BSA]), and blocked with the blocking buffer for 1-1.5 hr. sRAGE-Ig fusion samples were prepared in a separate dilution plate, the highest concentration was 10 μg/mL in blocking buffer, with 1:4 serial dilution in blocking buffer down to 2.4 ng/mL. After blocking, the assay plate was washed with the blocking buffer and 100 μL of the samples were transferred from the dilution plate to the assay plate. The assay plate was incubated at room temperature for 2.5 hr. The assay plate was then washed three times with the blocking buffer, with 1 min soaking time between the washes. The horseradish peroxidase conjugated goat anti-human IgG (Cat. No. A2290, Sigma, St. Louis, Mo.) was added to the plate with 100 μL/well at 1:2500 dilution in the blocking buffer. The plate was incubated for 1 hr at room temperature. The assay plate was then washed three times with the blocking buffer again, and 100 μL 3,3′,5,5′-tetramethylbenzidine (TMB; Cat. No. 34022, Pierce, Rockford, Ill.) was added to each well and the plate was incubated for 8 minutes at room temperature. 100 μL of 1M H₂SO₄ was then added to each well, the plate was shaken and read at 450 nm on a microplate reader.
(In general: In an ELISA, binding on a coated surface is turned into a signal by an enzyme label.)

Experiment [2] deals with T2, Abeta (human Aβ peptide; Aβ1-40 or Aβ1-28, Table 5 does not say which) (human, UniProt P05067 672-711).
T2 construct: Coated on the ELISA plate at 20 µg/mL in 1% NH4OH; also called A-beta peptide; amyloid beta
T2 sequence (P05067 672-711 limits assumed): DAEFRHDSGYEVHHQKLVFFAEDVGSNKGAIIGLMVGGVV
The experiment in a line: ELISA, Abeta peptide coated on plate, sRAGE-Ig titrated, anti-human IgG-HRP. On the procedure:
(§2) Assay for A3 peptide binding activities: Briefly, two human Aβ peptides were tested: Aβ1-40 (Catalogue# A-1153-2, Rpeptide), and Aβ1-28 (Catalogue#24232, AnaSpec). The plates were coated by 20 μg/mL peptide in 1% NH₄OH overnight at 4° C. The plate was then washed with blocking buffer (TBS pH8.0, 0.05% Tween20, and 1% BSA) and blocked for 1 hr at room temperature. All the other steps were performed essentially as described previously herein for S100b binding assay, supra.

Experiment [3] addresses T1, S100b protein (Cat. No. 559290, …). The experiment is described as follows: ELISA, S100b coated on plate; reference S1 control. On the procedure:
as §1

In experiment [4] the target is T2, Abeta (human Aβ peptide; Aβ1-40 or …). The experiment in a line: ELISA, Abeta peptide coated on plate; reference S1 control. As for the experimental part: as §2
In experiment [5] the target is T1, S100b protein (Cat. No. 559290, …). The experiment in a line: ELISA, S100b coated on plate; reference S1. On the procedure: as §1, with “The assay plate was then washed three times with the blocking buffer again, and 100 μL 3,3′,5,5′-tetramethylbenzidine (TMB; Cat. No. 34022, Pierce, Rockford, Ill.) was added to each well and the plate was incubated for 8 minutes at room temperature.” left out

The target in experiment [6] is T2, Abeta (human Aβ peptide; Aβ1-40 or …). The experiment is described as follows: ELISA, Abeta peptide coated on plate; reference S2F1. On the procedure:
as §2

Experiment [7] shares this target. The experiment in a line: ELISA, Abeta peptide coated on plate; reference S1. On the procedure: as §2
Experiment [8] deals with T1, S100b protein (Cat. No. 559290, …). The experiment in a line: ELISA, S100b coated on plate; reference S1F1. On the procedure: as §1, with “The assay plate was then washed three times with the blocking buffer again, and 100 μL 3,3′,5,5′-tetramethylbenzidine (TMB; Cat. No. 34022, Pierce, Rockford, Ill.) was added to each well and the plate was incubated for 8 minutes at room temperature.” left out

Where “and” joins values, the source holds several entries; their conditions need not be identical. Identical values can stand only once.

B1: sRAGE-Ig fusion protein, sample S1 (control, from untreated CHO cells, unfractionated) (Fc fusion)
chain: QNITARIGEPLVLKCKGAPKKPPQRLEWKLNTGRTEAWKVLSPQGGGPWDSVARVLPNGSLFLPAVGIQDEGIFRCQAMNRNGKETKSNYRVRVYQIPGKPEIVDSASELTAGVPNKVGTCVSEGSYPAGTLSWHLDGKPLVPNEKGVSVKEQTRRHPETGLFTLQSELMVTPAPGGDPRPTFSCSFSPGLPRHRALRTAPIQPRVWEPVPLEEVQLVVEPEGGAVAPPSVFLFPPKPKDTLMISRTPEVTCVVVDVSHEDPEVKFNWYVDGVEVHNAKTKPREEQYNSTYRVVSVLTVLHQDWLNGKEYKCKVSNKALPAPIEKTISKAKGQPREPQVYTLPPSRDELTKNQVSLTCLVKGFYPSDIAVEWESNGQPENNYKTTPPVLDSDGPFFLYSKLTVDKSRWQQGNVFSCSVMHEALHNHYTQKSLSLSPGK
modifications: N-terminal Gln1 cyclized to pyroglutamic acid (pE1); N-linked glycan sites N2, N58, N288 (numbering without the signal): mixture 3-Glycan = 67%, 2-Glycan = 22%
notes: Mostly a non-covalent homodimer (about 78%), with about 19% heterodimer with a furin-cleaved Fc fragment; C-terminal Lys438 partly clipped; also called S1 = control (untreated); sRAGE-Fc
As to B1, the IC50 is 0.18 µg/mL and 1.8 nM in experiment [1]; 1.24 nM in experiment [2]. The “Relative binding compared to control” value in experiment [3] and in experiment [4] was 100% each time.

B2: sRAGE-Ig fusion protein, sample 1 fraction 1 (S1F1), 3-glycan species from untreated CHO cells (Fc fusion)
chain: B1 chain
modifications: pE1; N-linked glycans at all three sites N2, N58, N288 (3-glycan only)
notes: RP-HPLC fraction exchanged into a stabilizing buffer before the ELISA; also called 3-Glycan only; fully occupied 3-glycan version
Regarding B2, the IC50 in experiment [1] was 0.39 µg/mL and 3.9 nM; in experiment [2], 1.21 nM.

B3: sRAGE-Ig fusion protein, sample 2 fraction 3 (S2F3), 0-glycan (aglycosylated) species from tunicamycin treated CHO cells (Fc fusion)
chain: B1 chain
modifications: pyroglutamic acid (pE) at the N-terminus; no glycan at N2, N58 or N288; mixture with or without C-terminal lysine
notes: RP-HPLC fraction; its mass agrees with the theoretical mass of the unglycosylated fusion protein; also called 0-Glycan only; aglycosylated variant
With B3, the “fold increase in binding compared to S1 control” value in experiment [5] was determined as 5 fold; in experiment [7], 3 fold. Further, the “fold increase in binding compared to 3-glycan S2F1” value in experiment [6] worked out at 6 fold. Further, the half-inhibitory concentration (IC50) in experiment [1] was 0.034 µg/mL and 0.34 nM; in experiment [2] it was 0.42 nM. The “fold increase in binding compared to 3-glycan S1F1” value in experiment [8] was 10 fold. Also, the “Relative binding compared to control” value came to 529% in experiment [3] and 295% in experiment [4].

B4: sRAGE-Ig fusion protein, sample S2 (from CHO cells treated with tunicamycin, unfractionated) (Fc fusion)
chain: B1 chain
modifications: pE1; N-linked sites N2, N58, N288: mixture 3-Glycan = 42%, 2-Glycan = 16%, 0-Glycan = 31%
notes: Cells treated with 5 µg/mL tunicamycin for 3 days; also called S2 = TMYCN (treated with tunicamycin)
B4: the entries for the “fold binding relative to sample S1” value in experiment [5] and in experiment [7] were about 3 fold and about 1.5 fold, respectively. In addition, the IC50 in experiment [1] was 0.061 µg/mL and 0.61 nM; in experiment [2], 0.82 nM. In addition, the “Relative binding compared to control” value in experiment [3] turned out to be 295%; in experiment [4], 151%.

B5: sRAGE-Ig fusion protein, sample 2 fraction 1 (S2F1), 3-glycan species from tunicamycin treated CHO cells (Fc fusion)
chain: B1 chain
modifications: pE1; N-linked glycans at all three sites N2, N58, N288 (3-glycan only)
notes: RP-HPLC fraction; also called 3-Glycan only
Take B5: the IC50 was 0.89 µg/mL and 8.9 nM in experiment [1]; 2.51 nM in experiment [2].

B6: sRAGE-Ig fusion protein, sample 2 fraction 2 (S2F2), 2-glycan species from tunicamycin treated CHO cells (Fc fusion)
chain: B1 chain
modifications: pE1; two of the three N-linked sites (N2, N58, N288) occupied; the filing cannot tell which
notes: RP-HPLC fraction; also called 2-Glycan only; doubly occupied variant
As to B6, the 50% inhibitory concentration (IC50) in experiment [1] was 0.1 µg/mL and 1 nM; in experiment [2], 0.52 nM.

B7: sRAGE-Ig fusion protein, sample 1 fraction 2 (S1F2), 2-glycan species from untreated CHO cells (Fc fusion)
chain: B1 chain
modifications: pE1; two of the three N-linked sites (N2, N58, N288) occupied; the filing cannot tell which
notes: RP-HPLC fraction; also called 2-Glycan only
With B7, the IC50 in experiment [1] is 0.104 µg/mL and 1.04 nM; in experiment [2], 0.73 nM.

In general, IC50 refers to the concentration at which inhibition is half-maximal. The low end stands for greater potency, the high end for weaker potency.
